Experimental data as given in the supplement of paper PMC11246515.
± gives the standard deviation of the averaged measurements.

Test: total protein half-life in vivo (active degradation + dilution); higher = more stable protein
[1] = E. coli NCM3722 delta-clpP delta-lon delta-hslV, growth: N-lim chemostat, doubling time 6 h
[2] = E. coli NCM3722 delta-clpP, growth: N-lim chemostat, doubling time 6 h
[3] = E. coli NCM3722 delta-hslV, growth: N-lim chemostat, doubling time 6 h
[4] = E. coli NCM3722 delta-lon, growth: N-lim chemostat, doubling time 6 h
[5] = E. coli NCM3722 delta-smpB, growth: N-lim chemostat, doubling time 6 h
[6] = wild type E. coli NCM3722, growth: C-lim chemostat, doubling time 3 h
[7] = wild type E. coli NCM3722, growth: C-lim chemostat, doubling time 6 h
[8] = wild type E. coli NCM3722, growth: C-lim chemostat, doubling time 12 h
[9] = wild type E. coli NCM3722, growth: N-lim chemostat, doubling time 6 h
[10] = wild type E. coli NCM3722, growth: N-lim chemostat, doubling time 12 h
[11] = wild type E. coli NCM3722, growth: P-lim chemostat, doubling time 6 h
[12] = wild type E. coli NCM3722, growth: P-lim chemostat, doubling time 12 h

Sequence | total protein half-life in vivo [1] [h] | total protein half-life in vivo [2] [h] | total protein half-life in vivo [3] [h] | total protein half-life in vivo [4] [h] | total protein half-life in vivo [5] [h] | total protein half-life in vivo [6] [h] | total protein half-life in vivo [7] [h] | total protein half-life in vivo [8] [h] | total protein half-life in vivo [9] [h] | total protein half-life in vivo [10] [h] | total protein half-life in vivo [11] [h] | total protein half-life in vivo [12] [h]
MKFFALFIYRPVATILLSVAITLCGILGFRMLPVAPLPQVDFPVIIVSASLPGASPETMASSVATPLERSLGRIAGVSEMTSSSSLGSTRIILQFDFDRDINGAARDVQAAINAAQSLLPSGMPSRPTYRKANPSDAPIMILTLTSDTYSQGELYDFASTQLAPTISQIDGVGDVDVGGSSLPAVRVGLNPQALFNQGVSLDDVRTAVSNANVRKPQGALEDGTHRWQIQTNDELKTAAEYQPLIIHYNNGGAVRLGDVATVTDSVQDVRNAGMTNAKPAILLMIRKLPEANIIQTVDSIRAKLPELQETIPAAIDLQIAQDRSPTIRASLEEVEQTLIISVALVILVVFLFLRSGRATIIPAVSVPVSLIGTFAAMYLCGFSLNNLSLMALTIATGFVVDDAIVVLENIARHLEAGMKPLQAALQGTREVGFTVLSMSLSLVAVFLPLLLMGGLPGRLLREFAVTLSVAIGISLLVSLTLTPMMCGWMLKASKPREQKRLRGFGRMLVALQQGYGKSLKWVLNHTRLVGVVLLGTIALNIWLYISIPKTFFPEQDTGVLMGGIQADQSISFQAMRGKLQDFMKIIRDDPAVDNVTGFTGGSRVNSGMMFITLKPRDERSETAQQIIDRLRVKLAKEPGANLFLMAVQDIRVGGRQSNASYQYTLLSDDLAALREWEPKIRKKLATLPELADVNSDQQDNGAEMNLVYDRDTMARLGIDVQAANSLLNNAFGQRQISTIYQPMNQYKVVMEVDPRYTQDISALEKMFVINNEGKAIPLSYFAKWQPANAPLSVNHQGLSAASTISFNLPTGKSLSDASAAIDRAMTQLGVPSTVRGSFAGTAQVFQETMNSQVILIIAAIATVYIVLGILYESYVHPLTILSTLPSAGVGALLALELFNAPFSLIALIGIMLLIGIVKKNAIMMVDFALEAQRHGNLTPQEAIFQACLLRFRPIMMTTLAALFGALPLVLSGGDGSELRQPLGITIVGGLVMSQLLTLYTTPVVYLFFDRLRLRFSRKPKQTVTE | 6.8 ± 0.5 | 6.49 ± 0.36 | 5.92 ± 0.38 | 7.42 ± 0.68 | 5.44 ± 0.14 | 3.64 ± 0.29 | 6.08 ± 1 | 14.4 ± 0.89 | 5.78 ± 0.89 | 13.8 ± 0.8 | 6.3 ± 0.2 | 12.2 ± 0.66
MKFQAIVLASFLVMPYALADDQGGLKQDAAPPPPHAIEDGYRGTDDAKKMTVDFAKTMHDGASVSLRGNLISHKGEDRYVFRDKSGEINVVIPAAVFDGREVQPDQMINISGSLDKKSAPAVVRVTHLQK | 3.34 ± 0.2 | 3.77 ± 0.45 | 5.37 ± 0.2 |  |  | 3.02 ± 0.51 | 5.22 ± 0.22 | 6.52 ± 1.8 | 5.18 ± 0.37 | 8.94 ± 0.26 | 4.33 ± 0.9 | 7.82 ± 2.9
MKFRLGGFEAIKSAYMAQVQYSMWVTRKDAWYFANYDPRMKREGLHYVVIERNEKYMASFDEMVPEFIEKMDEALAEIGFVFGEQWR |  | 2.75 |  |  |  |  |  |  |  |  |  | 
MKFSELWLREWVNPAIDSDALANQITMAGLEVDGVEPVAGSFHGVVVGEVVECAQHPNADKLRVTKVNVGGDRLLDIVCGAPNCRQGLRVAVATIGAVLPGDFKIKAAKLRGEPSEGMLCSFSELGISDDHSGIIELPADAPIGTDIREYLKLDDNTIEISVTPNRADCLGIIGVARDVAVLNQLPLVQPEIVPVGATIDDTLPITVEAPEACPRYLGRVVKGINVKAPTPLWMKEKLRRCGIRSIDAVVDVTNYVLLELGQPMHAFDKDRIEGGIVVRMAKEGETLVLLDGTEAKLNADTLVIADHNKALAMGGIFGGEHSGVNDETQNVLLECAFFSPLSITGRARRHGLHTDASHRYERGVDPALQHKAMERATRLLIDICGGEAGPVIDITNEATLPKRATITLRRSKLDRLIGHHIADEQVTDILRRLGCEVTEGKDEWQAVAPSWRFDMEIEEDLVEEVARVYGYNNIPDEPVQASLIMGTHREADLSLKRVKTLLNDKGYQEVITYSFVDPKVQQMIHPGVEALLLPSPISVEMSAMRLSLWTGLLATVVYNQNRQQNRVRIFESGLRFVPDTQAPLGIRQDLMLAGVICGNRYEEHWNLAKETVDFYDLKGDLESVLDLTGKLNEVEFRAEANPALHPGQSAAIYLKGERIGFVGVVHPELERKLDLNGRTLVFELEWNKLADRVVPQAREISRFPANRRDIAVVVAENVPAADILSECKKVGVNQVVGVNLFDVYRGKGVAEGYKSLAISLILQDTSRTLEEEEIAATVAKCVEALKERFQASLRD | 6.244 ± 0.025 | 5.88 ± 0.61 | 5.77 ± 0.16 | 5.98 ± 0.44 | 5.33 ± 0.063 | 3.37 ± 0.066 | 6.34 ± 0.37 | 12.5 ± 0.56 | 5.41 ± 0.088 | 10.4 ± 0.24 | 6.01 ± 0.4 | 12 ± 0.58
MKFVDEASILVVAGDGGNGCVSFRREKYIPKGGPDGGDGGDGGDVWMEADENLNTLIDYRFEKSFRAERGQNGASRDCTGKRGKDVTIKVPVGTRVIDQGTGETMGDMTKHGQRLLVAKGGWHGLGNTRFKSSVNRTPRQKTNGTPGDKRELLLELMLLADVGMLGMPNAGKSTFIRAVSAAKPKVADYPFTTLVPSLGVVRMDNEKSFVVADIPGLIEGAAEGAGLGIRFLKHLERCRVLLHLIDIDPIDGTDPVENARIIISELEKYSQDLATKPRWLVFNKIDLLDKVEAEEKAKAIAEALGWEDKYYLISAASGLGVKDLCWDVMTFIIENPVVQAEEAKQPEKVEFMWDDYHRQQLEEIAEEDDEDWDDDWDEDDEEGVEFIYKR | 5.72 ± 1.1 | 4.17 ± 0.15 | 2.39 ± 0.18 | 2.44 ± 0.097 | 2.185 ± 0.021 | 2.27 ± 0.1 | 3.58 ± 0.14 | 5.35 ± 0.73 | 2.39 ± 0.11 | 2.82 ± 0.035 | 3.04 ± 0.22 | 5.89 ± 0.39
MKGLNKITCCLLAALLMPCAGHAENEQYGANFNNADIRQFVEIVGQHLGKTILIDPSVQGTISVRSNDTFSQQEYYQFFLSILDLYGYSVITLDNGFLKVVRSANVKTSPGMIADSSRPGVGDELVTRIVPLENVPARDLAPLLRQMMDAGSVGNVVHYEPSNVLILTGRASTINKLIEVIKRVDVIGTEKQQIIHLEYASAEDLAEILNQLISESHGKSQMPALLSAKIVADKRTNSLIISGPEKARQRITSLLKSLDVEESEEGNTRVYYLKYAKATNLVEVLTGVSEKLKDEKGNARKPSSSGAMDNVAITADEQTNSLVITADQSVQEKLATVIARLDIRRAQVLVEAIIVEVQDGNGLNLGVQWANKNVGAQQFTNTGLPIFNAAQGVADYKKNGGITSANPAWDMFSAYNGMAAGFFNGDWGVLLTALASNNKNDILATPSIVTLDNKLASFNVGQDVPVLSGSQTTSGDNVFNTVERKTVGTKLKVTPQVNEGDAVLLEIEQEVSSVDSSSNSTLGPTFNTRTIQNAVLVKTGETVVLGGLLDDFSKEQVSKVPLLGDIPLVGQLFRYTSTERAKRNLMVFIRPTIIRDDDVYRSLSKEKYTRYRQEQQQRIDGKSKALVGSEDLPVLDENTFNSHAPAPSSR | 2.53 |  |  |  | 1.92 ± 0.044 | 2.2 |  |  |  |  |  | 
MKHELSSMKAFVILAESSSFNNAAKLLNITQPALTRRIKKMEEDLHVQLFERTTRKVTLTKAGKRLLPEARELIKKFDETLFNIRDMNAYHRGMVTLACIPTAVFYFLPLAIGKFNELYPNIKVRILEQGTNNCMESVLCNESDFGINMNNVTNSSIDFTPLVNEPFVLACRRDHPLAKKQLVEWQELVGYKMIGVRSSSGNRLLIEQQLADKPWKLDWFYEVRHLSTSLGLVEAGLGISALPGLAMPHAPYSSIIGIPLVEPVIRRTLGIIRRKDAVLSPAAERFFALLINLWTDDKDNLWTNIVERQRHALQEIG | 3.61 |  |  |  |  |  |  |  |  |  |  | 
MKHLHRFFSSDASGGIILIIAAILAMIMANSGATSGWYHDFLETPVQLRVGSLEINKNMLLWINDALMAVFFLLVGLEVKRELMQGSLASLRQAAFPVIAAIGGMIVPALLYLAFNYADPITREGWAIPAATDIAFALGVLALLGSRVPLALKIFLMALAIIDDLGAIIIIALFYTNDLSMASLGVAAVAIAVLAVLNLCGARRTGVYILVGVVLWTAVLKSGVHATLAGVIVGFFIPLKEKHGRSPAKRLEHVLHPWVAYLILPLFAFANAGVSLQGVTLDGLTSILPLGIIAGLLIGKPLGISLFCWLALRLKLAHLPEGTTYQQIMVVGILCGIGFTMSIFIASLAFGSVDPELINWAKLGILVGSISSAVIGYSWLRVRLRPSV | 6.65 | 6.24 ± 0.42 | 5.55 ± 0.066 | 5.75 ± 0.5 | 6.42 ± 0.43 | 3.69 | 5.22 ± 1.9 | 12 | 5.7 ± 0.59 | 11.7 ± 0.19 | 5.867 ± 0.035 | 10.6 ± 2
MKHLTEMVRQHKAGKTNGIYAVCSAHPLVLEAAIRYASANQTPLLIEATSNQVDQFGGYTGMTPADFRGFVCQLADSLNFPQDALILGGDHLGPNRWQNLPAAQAMANADDLIKSYVAAGFKKIHLDCSMSCQDDPIPLTDDIVAERAARLAKVAEETCLEHFGEADLEYVIGTEVPVPGGAHETLSELAVTTPDAARATLEAHRHAFEKQGLNAIWPRIIALVVQPGVEFDHTNVIDYQPAKASALSQMVENYETLIFEAHSTDYQTPQSLRQLVIDHFAILKVGPALTFALREALFSLAAIEEELVPAKACSGLRQVLEDVMLDRPEYWQSHYHGDGNARRLARGYSYSDRVRYYWPDSQIDDAFAHLVRNLADSPIPLPLISQYLPLQYVKVRSGELQPTPRELIINHIQDILAQYHTACEGQ [P0C8K0] |  |  |  |  |  | 2.63 ± 0.042 | 3.29 | 5 ± 1.3 |  |  |  | 
